Marks after values point to notes of the source that are not given here.
Legend:
[1] = Toxicities in animal studies of the ADC formats; format: in vivo; conditions: each antibody incorporated into several ADC formats
Text: Exatecans have a high level of bystander effect, meaning that they can kill neighboring cells. […] It is not completely clear whether these side effects are due to the payload or to the target, HER2, which is also expressed on normal lung and normal heart. Recall that the first two patients treated with a HER2 targeting CAR T cell product died shortly after the infusion. […] More recently, yet another patient died after being treated with a different HER2-targeting ADC.

[2] = tested on: T47D wild-type breast cancer cells; assay: xCELLigence real-time killing assay (impedance); format: cell-based, human
Description: FIGS. 49A-49J show traces from the real-time killing assays performed on an xCELLigence instrument. In this assay, impedance is measured in real-time. When the adherent cancer cells are killed and come off of the electrode surface, impedance (insulation) decreases. T47D wild-type breast cancer cells were plated onto multi-electrode-well plates at 5,000 cells per well and allowed to adhere and grow for 24 hours before the addition of ADCs. Either MNC2-MMAE, DAR 4.1, MN20A10-MMAE, DAR 5.8, MNC2-MMAF, DAR 3.7, MN20A10-MMAF, DAR 3.8, MNC2-Deruxtecan, DAR 7.2, or MN20A10-Deruxtecan, DAR 4.6, was then added to the cancer cells. […] Taxol and Triton are added as the positive killing control. […] Taxol and Triton are added as the positive killing control. […]
(§1) To assess real-time killing of target cancer cells including breast cancer cells (T47D), non-small cell lung cancer cells (NCI-H1975) and pancreatic cancer cells (HP AF II) assays were performed on an xCELLigence RTCA MP Instrument (Agilent). Target Cancer cells were seeded onto a multi-electrode well plate at a density of 5000 cells/well (100 μL of a 50,000 cells/mL stock) and incubated for 24 hr in a 37° C./5% CO2 incubator. mAb MNC2 ADCs or mAb MN20A10-ADCs were prepared as a 2× solution in corresponding growth media and 100 μL of each concentration was added to target cells. As a positive control (100% cell killing) cells were treated with either 1% triton or 1 μM Taxol instead of ADC. After 40-120 hours incubation in a 37° C./5% CO2 incubator cell killing was assessed. In this assay, impedance is measured in real-time. When the adherent cancer cells are killed and come off the electrode surface, impedance (insulation) decreases.
(§2) MNC2-ADCs and MN20A10-ADCs were also assayed for their ability to kill both low and high MUC1* expressing cells by monitoring killing in real-time using an xCELLigence instrument. In the xCelligence system, target cancer cells, which are adherent, are plated onto electrode array 96-well plates. Adherent cells insulate the electrode and increase the impedance. The number of adherent cancer cells is directly proportional to impedance. […] Therefore, increasing impedance reflects the growth of the cancer cells and decreasing impedance reflects the killing of the cancer cells.
Breast cancer cell line T47D-wt expresses MUC1* at low to low-medium levels. Pancreatic cancer cell line HPAF II-wt expresses even lower levels of MUC1* and lung cancer cell line NCI-H1975 express still lower levels of MUC1*.

[3] = tested on: T47D-MUC1* breast cancer cells; assay: xCELLigence real-time killing assay (impedance); format: cell-based, human
Description: In this assay, impedance is measured in real-time. When the adherent cancer cells are killed and come off of the electrode surface, impedance (insulation) decreases. […] Either MNC2-MMAE, DAR 4.1, MN20A10-MMAE, DAR 5.8, MNC2-MMAF, DAR 3.7, MN20A10-MMAF, DAR 3.8, MNC2-Deruxtecan, DAR 7.2, or MN20A10-Deruxtecan, DAR 4.6, was then added to the cancer cells. […] Taxol and Triton are added as the positive killing control. […] Taxol and Triton are added as the positive killing control.
In this assay, impedance is measured in real-time. When the adherent cancer cells are killed and come off of the electrode surface, impedance (insulation) decreases. […] Either MNC2-Exatecan, DAR 8.2, MNC2-Deruxtecan, DAR 4.0, MNC2-MMAE, DAR 4.1, or free Exatecan at 50 μM, was then added to the cancer cells.
as §1, §2

[4] = tested on: NCI-H1975 lung cancer cells; assay: xCELLigence real-time killing assay (impedance); format: cell-based, human; conditions: readout 0 to 120 hours, DAR 8.2 (FIG. 56)
Description: FIG. 51A-51I show traces from the real-time killing assays performed on an xCELLigence instrument. In this assay, impedance is measured in real-time. When the adherent cancer cells are killed and come off of the electrode surface, impedance (insulation) decreases. NCI-H1975 lung cancer cells were plated onto multi-electrode-well plates at 5,000 cells per well and allowed to adhere and grow for 24 hours before the addition of ADCs. Either MNC2-MMAE, DAR 4.1, MN20A10-MMAE, DAR 5.8, MNC2-MMAF, DAR 3.7, MN20A10-MMAF, DAR 3.8, MNC2-Deruxtecan, DAR 7.2, or MN20A10-Deruxtecan, DAR 4.6, was then added to the cancer cells. […] Taxol and Triton are added as the positive killing control. […].
FIGS. 56A-56D show traces from the real-time killing assays performed on an xCELLigence instrument. In this assay, impedance is measured in real-time. When the adherent cancer cells are killed and come off of the electrode surface, impedance (insulation) decreases. Here NCI-H1975 non-small cell lung cancer cells that express very low levels of MUC1*, were plated onto multi-electrode 96-well plates at 5,000 cells per well and allowed to adhere and grow for 24 hours before the addition of ADCs. Either MNC2-Exatecan, DAR 8.2, MNC2-Deruxtecan, DAR 4.0, MNC2-MMAE, DAR 4.1, or free Exatecan at 50 μM, was then added to the cancer cells.
as §1, §2

[5] = tested on: cancer cells that express low levels of MUC1*; assay: xCELLigence real-time killing assay, summary over low expressers; format: cell-based; conditions: FIG. 54 and FIG. 56, DAR 8.2
[6] = tested on: DU145 hormone refractory prostate cancer cells; assay: PrestoBlue live/dead cell assay and brightfield photographs; format: cell-based; conditions: 500 nM, 20× magnification

B1: MN20A10: anti-MUC1* antibody, IgG2b isotype, CDRs SEQ ID NO 1-3 and 13-15 (antibody, V domains shown)
VH: EVMLVESGGGLVKPGGSLKLSCAASGFTFSTYAMSWIRQTPEKRLEWVASIGRAGSTYYSDSVKGRFTISRDNVRNILYLQMSSLRSEDTAMYYCARGPIYNDYDEFAYWGQGTLVTVSA
VL: NIMMTQSPSSLAVSAGEKVTMSCKSSQSVLYSSNQKNYLAWYQQKPGQSPKLLIYWASTRESGVPDRFTGSGSGTDFTLTISSVQAEDLAVYYCHQYLSSLTFGAGTKLELK
toxicities [1]: elicited no toxicities in animal studies

B2: MNC2-Exatecan (conjugate)
VH: EVQLVESGGGLVKPGGSLRLSCAASGFTFSGYAMSWVRQAPGKGLEWVSTISSGGTYIYYPDSVKGRFTISRDNAKNSLYLQMNSLRAEDTAVYYCARLGGDNYYEYFDVWGKGTTVTVSS
VL: DIVLTQSPASLAVSPGQRATITCRASKSVSTSGYSYMHWYQQKPGQPPKLLIYLASNLESGVPARFSGSGSGTDFTLTINPVEANDTANYYCQHSRELPFTFGGGTKVEIKRT
concentration as low as which target cancer cells are potently killed ([2]; readout 0 to 120 hours, DAR 8.2 (FIG. 54)): 56 nM | concentration as low as which cancer cells are potently killed ([3]; readout 0 to 120 hours, MNC2-Exatecan DAR 8.2, MNC2-Deruxtecan DAR 4.0 (FIG. 55)): as low as 6.2 nM and even as low as 2.1 nM | concentration as low as which cancer cells are potently killed [4]: 167 nM | killing potency compared with MNC2-deruxtecan (DAR 4.0) and MNC2-MMAE (DAR 4.1) [5]: more potent killing of the low MUC1* expressing cancer cells

B3: MN20A10-Deruxtecan (conjugate)
VH: QVQLVESGGGLVKPGGSLRLSCAASGFTFSTYAMSWIRQAPGKGLEWVASIGRAGSTYYSDSVKGRFTISRDNAKNSLYLQMNSLRAEDTAVYYCARGPIYNDYDEFAYWGQGTLVTVSS
VL: EIVLTQSPATLSLSPGERATLSCKSSQSVLYSSNQKNYLAWYQQKPGQAPRLLIYWASTRESGIPARFSGSGSGTDFTLTISSLEPEDFAVYYCHQYLSSLTFGGGTKVEIKR
cell morphology in photographs [6]: rounding up and dead cells | concentration showing potent / effective / comparable killing ([2]; after 120 hours): 167 nM | concentration with significant killing ([2]; by 120 hours, DAR 4.6): 167 nM | ADC concentration at which essentially all (near total) tumor cells were killed ([3]; readout 120 hours post ADC addition): 167 nM

From patent publication US12491259B2, “Anti-variable MUC1* antibodies and uses thereof” (Minerva Biotechnologies Corporation, priority 2022, dated 2025)
